The supplement of paper PMC10065799, “High-throughput profiling of sequence recognition by tyrosine kinases and SH2 domains using bacterial peptide display” (eLife, 2023)

How the values were obtained:
[1] = biological target: FGFR1 (UniProt P11362); experiment: phosphorylation enrichment, bacterial display (enrichment ratio); higher = better substrate or ligand; peptides without Tyr show the background
[2] = biological target: Jak2 (UniProt O60674); experiment: as above
[3] = tested on: c-Src; experiment: as above
[4] = biological target: Hck (UniProt P08631); experiment: as above
[5] = biological target: MERTK (UniProt Q12866); experiment: as above
[6] = tested on: c-Abl (mouse); experiment: as above
[7] = tested on: Fer (mouse); experiment: as above
[8] = biological target: FGFR3 (UniProt P22607); experiment: as above
[9] = biological target: EPHB2 (UniProt P29323); experiment: as above
[10] = biological target: Fes (UniProt P07332); experiment: as above
[11] = tested on: AncSZ; experiment: as above
[12] = biological target: EPHB1 (UniProt P54762); experiment: as above
[13] = biological target: Fyn (UniProt P06241); experiment: as above
[14] = biological target: c-Src SH2; experiment: SH2 binding enrichment of the phosphorylated peptide, bacterial display (enrichment ratio); higher = better substrate or ligand; peptides without Tyr show the background
[15] = biological target: Grb2 SH2 (UniProt P62993); experiment: as above
[16] = biological target: SHP2-C SH2; experiment: as above
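For SH2 binding enrichment of the phosphorylated peptide, bacterial display in this document: peptide library displayed on the E. coli surface as eCPX fusions, selected cells deep-sequenced, score is each peptide's frequency after selection divided by its frequency in the input.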
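For phosphorylation enrichment, bacterial display in this document: 11-residue human phosphosite peptides and single-mutation variants displayed on the E. coli surface, counted by deep sequencing, each peptide's frequency after selection divided by its frequency in the unselected input library; frequency after pTyr selection over input frequency; kinase dosed for 20-30% of maximal phosphorylation in three min.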

Hck, sequence (P08631 whole entry, looked up): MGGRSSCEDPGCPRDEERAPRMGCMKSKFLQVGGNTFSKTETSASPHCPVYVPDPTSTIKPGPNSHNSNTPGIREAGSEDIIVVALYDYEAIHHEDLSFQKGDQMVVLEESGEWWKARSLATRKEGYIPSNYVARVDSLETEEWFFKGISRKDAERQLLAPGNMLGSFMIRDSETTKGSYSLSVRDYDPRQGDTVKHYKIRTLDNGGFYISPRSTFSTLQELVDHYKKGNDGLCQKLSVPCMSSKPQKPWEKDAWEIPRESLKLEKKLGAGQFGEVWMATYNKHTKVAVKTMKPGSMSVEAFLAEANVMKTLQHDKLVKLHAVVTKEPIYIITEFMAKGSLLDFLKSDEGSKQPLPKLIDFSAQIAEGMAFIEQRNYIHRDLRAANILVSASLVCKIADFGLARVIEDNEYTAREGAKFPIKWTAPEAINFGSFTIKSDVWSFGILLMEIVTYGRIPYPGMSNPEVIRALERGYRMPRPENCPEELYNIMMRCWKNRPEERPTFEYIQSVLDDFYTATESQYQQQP
Jak2, sequence (O60674 whole entry, looked up): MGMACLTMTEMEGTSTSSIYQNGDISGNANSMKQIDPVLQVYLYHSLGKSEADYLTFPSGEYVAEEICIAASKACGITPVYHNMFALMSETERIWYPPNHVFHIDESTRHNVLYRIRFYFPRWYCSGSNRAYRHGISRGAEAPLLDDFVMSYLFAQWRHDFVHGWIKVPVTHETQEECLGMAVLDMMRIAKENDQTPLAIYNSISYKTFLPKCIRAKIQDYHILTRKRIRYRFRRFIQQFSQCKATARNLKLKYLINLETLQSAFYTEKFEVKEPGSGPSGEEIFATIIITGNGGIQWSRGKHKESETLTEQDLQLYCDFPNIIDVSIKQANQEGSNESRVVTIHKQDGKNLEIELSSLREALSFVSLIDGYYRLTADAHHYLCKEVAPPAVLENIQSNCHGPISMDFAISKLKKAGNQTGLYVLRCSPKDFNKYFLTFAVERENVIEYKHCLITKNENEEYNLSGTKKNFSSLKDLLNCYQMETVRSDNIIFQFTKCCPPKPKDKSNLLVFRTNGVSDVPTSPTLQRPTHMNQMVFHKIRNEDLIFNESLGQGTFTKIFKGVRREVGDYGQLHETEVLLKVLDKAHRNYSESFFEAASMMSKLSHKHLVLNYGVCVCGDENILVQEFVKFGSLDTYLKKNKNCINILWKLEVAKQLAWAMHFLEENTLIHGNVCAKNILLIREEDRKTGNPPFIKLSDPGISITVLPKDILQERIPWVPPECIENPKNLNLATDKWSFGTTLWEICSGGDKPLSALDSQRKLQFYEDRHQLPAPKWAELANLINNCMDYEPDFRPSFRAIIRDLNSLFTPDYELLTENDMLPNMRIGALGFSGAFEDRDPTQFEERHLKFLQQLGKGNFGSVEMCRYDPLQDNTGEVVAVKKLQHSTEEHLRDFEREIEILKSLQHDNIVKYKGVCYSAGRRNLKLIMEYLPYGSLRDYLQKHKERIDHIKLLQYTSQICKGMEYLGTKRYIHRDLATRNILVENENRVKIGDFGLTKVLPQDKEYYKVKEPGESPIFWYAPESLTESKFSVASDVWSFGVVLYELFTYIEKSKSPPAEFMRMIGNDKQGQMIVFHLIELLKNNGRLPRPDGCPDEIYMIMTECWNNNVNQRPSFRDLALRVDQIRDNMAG
FGFR3, sequence (P22607 whole entry, looked up): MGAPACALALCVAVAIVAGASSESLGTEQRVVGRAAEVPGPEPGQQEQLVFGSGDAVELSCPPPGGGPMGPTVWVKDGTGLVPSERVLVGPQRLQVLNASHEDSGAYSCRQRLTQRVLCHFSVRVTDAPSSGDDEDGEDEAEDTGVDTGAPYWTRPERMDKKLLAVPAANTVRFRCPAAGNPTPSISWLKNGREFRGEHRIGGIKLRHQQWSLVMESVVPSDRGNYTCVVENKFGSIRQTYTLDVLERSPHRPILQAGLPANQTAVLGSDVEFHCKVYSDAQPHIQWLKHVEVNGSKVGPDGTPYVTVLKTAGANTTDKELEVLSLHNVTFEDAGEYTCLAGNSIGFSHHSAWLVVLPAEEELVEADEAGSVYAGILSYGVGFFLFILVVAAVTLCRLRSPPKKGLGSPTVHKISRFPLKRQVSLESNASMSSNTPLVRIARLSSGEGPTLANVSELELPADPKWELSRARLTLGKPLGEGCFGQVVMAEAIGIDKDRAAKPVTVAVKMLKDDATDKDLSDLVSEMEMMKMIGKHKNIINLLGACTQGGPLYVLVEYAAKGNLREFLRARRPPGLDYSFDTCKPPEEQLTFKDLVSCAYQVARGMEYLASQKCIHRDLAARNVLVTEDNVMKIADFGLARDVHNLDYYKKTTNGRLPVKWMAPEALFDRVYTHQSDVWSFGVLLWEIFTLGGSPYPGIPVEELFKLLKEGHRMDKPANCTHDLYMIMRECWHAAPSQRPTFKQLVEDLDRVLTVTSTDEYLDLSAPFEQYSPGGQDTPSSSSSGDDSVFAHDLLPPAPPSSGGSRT
Fes, sequence (P07332 whole entry, looked up): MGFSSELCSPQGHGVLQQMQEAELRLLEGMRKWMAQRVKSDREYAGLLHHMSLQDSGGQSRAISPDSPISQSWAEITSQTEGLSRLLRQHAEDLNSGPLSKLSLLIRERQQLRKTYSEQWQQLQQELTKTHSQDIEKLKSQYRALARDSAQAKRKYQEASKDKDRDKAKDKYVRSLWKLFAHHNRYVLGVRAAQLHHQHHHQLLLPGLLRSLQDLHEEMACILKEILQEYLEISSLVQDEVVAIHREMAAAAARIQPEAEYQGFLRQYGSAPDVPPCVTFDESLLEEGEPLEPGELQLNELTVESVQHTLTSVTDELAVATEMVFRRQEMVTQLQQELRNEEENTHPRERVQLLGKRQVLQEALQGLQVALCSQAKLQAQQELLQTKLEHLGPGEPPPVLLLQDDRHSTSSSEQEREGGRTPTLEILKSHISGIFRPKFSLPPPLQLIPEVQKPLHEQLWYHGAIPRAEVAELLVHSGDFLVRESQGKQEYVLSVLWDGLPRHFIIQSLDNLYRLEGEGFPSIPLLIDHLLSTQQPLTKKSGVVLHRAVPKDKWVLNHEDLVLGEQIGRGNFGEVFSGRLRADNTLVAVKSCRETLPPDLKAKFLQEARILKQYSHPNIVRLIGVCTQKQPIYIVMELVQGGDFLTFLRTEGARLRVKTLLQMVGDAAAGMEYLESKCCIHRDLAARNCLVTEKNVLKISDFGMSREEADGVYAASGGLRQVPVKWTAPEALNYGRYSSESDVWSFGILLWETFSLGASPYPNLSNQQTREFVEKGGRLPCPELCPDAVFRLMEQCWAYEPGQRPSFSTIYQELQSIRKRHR
EPHB1, sequence (P54762 whole entry, looked up): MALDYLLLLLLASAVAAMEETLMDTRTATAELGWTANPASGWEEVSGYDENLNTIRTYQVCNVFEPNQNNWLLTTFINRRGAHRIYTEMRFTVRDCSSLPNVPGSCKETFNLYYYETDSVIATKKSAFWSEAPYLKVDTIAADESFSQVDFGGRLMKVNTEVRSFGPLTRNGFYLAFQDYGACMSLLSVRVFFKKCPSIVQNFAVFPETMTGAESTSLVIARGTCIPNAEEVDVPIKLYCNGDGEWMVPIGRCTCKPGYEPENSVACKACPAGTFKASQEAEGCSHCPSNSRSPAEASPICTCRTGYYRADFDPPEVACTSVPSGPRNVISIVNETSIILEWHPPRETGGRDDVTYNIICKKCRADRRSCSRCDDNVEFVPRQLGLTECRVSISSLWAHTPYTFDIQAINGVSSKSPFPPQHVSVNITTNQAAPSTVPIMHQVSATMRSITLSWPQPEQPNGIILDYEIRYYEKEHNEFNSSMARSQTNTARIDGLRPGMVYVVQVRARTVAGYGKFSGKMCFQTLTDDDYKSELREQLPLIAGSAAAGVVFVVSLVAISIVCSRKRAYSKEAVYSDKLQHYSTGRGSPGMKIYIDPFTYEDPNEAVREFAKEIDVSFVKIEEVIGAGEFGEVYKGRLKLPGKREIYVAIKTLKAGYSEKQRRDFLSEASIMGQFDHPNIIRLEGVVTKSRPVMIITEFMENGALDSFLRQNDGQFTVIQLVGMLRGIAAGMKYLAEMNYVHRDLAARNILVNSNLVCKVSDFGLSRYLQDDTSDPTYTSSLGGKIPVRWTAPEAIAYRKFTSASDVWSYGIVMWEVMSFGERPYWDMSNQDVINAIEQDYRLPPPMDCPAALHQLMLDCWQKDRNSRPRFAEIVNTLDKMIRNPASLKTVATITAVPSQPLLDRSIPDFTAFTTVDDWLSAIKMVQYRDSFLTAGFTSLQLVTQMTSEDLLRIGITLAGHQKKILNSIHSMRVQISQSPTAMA
Grb2 SH2, sequence (P62993 whole entry, looked up): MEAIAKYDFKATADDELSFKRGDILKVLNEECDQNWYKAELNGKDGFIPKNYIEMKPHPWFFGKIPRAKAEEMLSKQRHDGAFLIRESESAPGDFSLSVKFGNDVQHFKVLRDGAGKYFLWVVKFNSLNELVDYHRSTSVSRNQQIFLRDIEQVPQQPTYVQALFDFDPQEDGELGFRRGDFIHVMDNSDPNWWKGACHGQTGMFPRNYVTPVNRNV
Fyn, sequence (P06241 whole entry, looked up): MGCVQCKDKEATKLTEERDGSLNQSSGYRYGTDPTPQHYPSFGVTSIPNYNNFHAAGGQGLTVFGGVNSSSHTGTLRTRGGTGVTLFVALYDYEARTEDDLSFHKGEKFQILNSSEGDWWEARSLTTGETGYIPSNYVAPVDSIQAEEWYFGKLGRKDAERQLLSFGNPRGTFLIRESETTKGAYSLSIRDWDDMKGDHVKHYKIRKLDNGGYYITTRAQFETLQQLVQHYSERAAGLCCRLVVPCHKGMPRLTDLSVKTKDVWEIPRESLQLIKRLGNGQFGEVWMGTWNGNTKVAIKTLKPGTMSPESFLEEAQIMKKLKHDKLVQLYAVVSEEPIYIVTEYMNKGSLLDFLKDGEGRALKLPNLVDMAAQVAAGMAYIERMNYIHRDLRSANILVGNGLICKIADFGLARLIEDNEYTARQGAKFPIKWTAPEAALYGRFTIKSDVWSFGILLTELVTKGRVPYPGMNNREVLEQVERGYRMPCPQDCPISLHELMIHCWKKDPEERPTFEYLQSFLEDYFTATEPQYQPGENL

Sequence | phosphorylation enrichment [1] | phosphorylation enrichment [2] | phosphorylation enrichment [3] | phosphorylation enrichment [4] | phosphorylation enrichment [5] | phosphorylation enrichment [6] | phosphorylation enrichment [7] | phosphorylation enrichment [8] | phosphorylation enrichment [9] | phosphorylation enrichment [10] | phosphorylation enrichment [11] | phosphorylation enrichment [12] | phosphorylation enrichment [13] | SH2 binding enrichment [14] | SH2 binding enrichment [15] | SH2 binding enrichment [16]
DSMQSYDLDYP [UNC13B_Y243] | 0.665 | 1.45 | 0.474 | 0.474 | 0.405 | 0.496 | 0.451 | 0.673 | 0.552 | 0.946 | 1.3 | 0.4 | 0.466 | 0.733 | 0.915 | 0.456
VDHFGYTKDDK [APOB_Y740] | 0.497 | 0.762 | 0.393 | 0.463 | 0.395 | 0.67 | 0.408 | 0.498 | 0.327 | 0.764 | 0.709 | 0.388 | 0.369 | 0.592 | 0.819 | 0.95
EVDELYREAPI [MYL12B_Y143] | 0.86 | 1.29 | 0.52 | 0.705 | 0.598 | 0.962 | 0.62 | 1.11 | 0.654 | 1.39 | 1.27 | 0.784 | 0.654 | 0.475 | 0.867 | 0.719
LAETSYVTVLE [MAGEA1_Y276_K278T] | 0.915 | 1.02 | 0.496 | 0.862 | 0.708 | 0.903 | 0.67 | 1.31 | 0.968 | 1.65 | 1.65 | 0.674 | 0.702 | 1.25 | 0.73 | 2.48
MFCAGYDTKQE [F10_Y407] | 0.518 | 1.38 | 0.584 | 0.632 | 0.48 | 0.793 | 0.652 | 0.877 | 0.805 | 1.47 | 1.11 | 0.81 | 0.539 | 0.495 | 0.65 | 0.727
SSNPEYLSASD [INSR_Y999] | 0.498 | 0.961 | 0.458 | 0.462 | 0.476 | 0.719 | 0.491 | 0.695 | 0.594 | 1 | 1.12 | 0.514 | 0.531 | 0.557 | 0.977 | 0.642
GLVFLYMEKNQ [PRELP_Y156] | 0.339 | 1.17 | 0.37 | 0.337 | 0.262 | 0.854 | 0.635 | 0.719 | 0.523 | 1.18 | 0.932 | 0.607 | 0.304 | 0.634 | 0.979 | 0.873
RKELFYKADGE [SERPINC1_Y272] | 0.713 | 0.893 | 0.63 | 0.881 | 0.659 | 0.779 | 0.783 | 0.638 | 0.548 | 1.08 | 1.12 | 0.824 | 0.519 | 0.369 | 0.858 | 0.942
QKLPSYILENN [VPS13B_Y2774] | 0.625 | 1.49 | 0.499 | 0.792 | 0.529 | 1.11 | 0.681 | 0.938 | 0.701 | 1.94 | 1.53 | 0.787 | 0.629 | 0.607 | 0.755 | 0.762
VECQVYAEDPY [PCCA_Y401_R399Q] | 0.575 | 1.28 | 1.02 | 0.669 | 0.466 | 0.981 | 0.846 | 1.12 | 0.8 | 1.65 | 1.51 | 0.828 | 0.765 | 0.457 | 0.631 | 0.719
KLSCSYSHWSA [C4BPA_Y470] | 0.793 | 0.894 | 0.672 | 0.636 | 0.527 | 1.15 | 0.657 | 0.91 | 0.771 | 1.28 | 1.13 | 0.716 | 0.578 | 0.732 | 0.894 | 0.802
VVIVLYFSLWK [SLC6A2_Y249] | 0.486 | 0.64 | 0.348 | 0.42 | 0.39 | 0.942 | 0.314 | 0.459 | 0.453 | 1.13 | 0.703 | 0.254 | 0.241 | 1.22 | 1.59 | 1.56
GIYSGYDDAWD [POLR1C_Y36_N32I] | 0.568 | 1.05 | 5.63 | 5.99 | 2.25 | 0.835 | 1.46 | 0.647 | 2.5 | 1.09 | 1.44 | 2.36 | 7.64 | 5.53 | 0.854 | 0.632
RELGEYGLQAF [ALDH2_Y497_YF] | 0.653 | 0.724 | 0.704 | 0.772 | 1.87 | 0.951 | 0.816 | 0.793 | 1.07 | 1.66 | 1.07 | 0.707 | 0.775 | 0.758 | 1.15 | 1.04
CGSLLYGLVHQ [PRKCG_Y122] | 0.545 | 0.673 | 5.57 | 7.19 | 7.41 | 0.664 | 12.9 | 0.663 | 4.64 | 1.2 | 0.889 | 2.22 | 5.73 | 0.519 | 0.987 | 0.908
VRFMANTDETF [F8_Y450_Y450N] | 0.439 | 0.849 | 0.44 | 0.462 | 0.408 | 0.604 | 0.436 | 0.653 | 0.568 | 1.12 | 0.928 | 0.701 | 0.408 | 0.452 | 0.645 | 0.722
QAPPIYLDVLG [NTRK1_Y791_V790I] | 3.35 | 1.21 | 1.71 | 2.11 | 3.35 | 0.878 | 3.26 | 2.38 | 3.26 | 0.952 | 1.31 | 13.6 | 1.46 | 0.413 | 0.791 | 0.734

Sequence | phosphorylation enrichment [1] | phosphorylation enrichment [2] | phosphorylation enrichment [3] | phosphorylation enrichment [4] | phosphorylation enrichment [5] | phosphorylation enrichment [6] | phosphorylation enrichment [7] | phosphorylation enrichment [8] | phosphorylation enrichment [9] | phosphorylation enrichment [10] | phosphorylation enrichment [11] | phosphorylation enrichment [12] | phosphorylation enrichment [13] | SH2 binding enrichment [14] | SH2 binding enrichment [15] | SH2 binding enrichment [16]
TKDTIYKQPMF [GBA_Y451_F450I] | 0.406 | 0.907 | 0.6 | 0.8 | 0.499 | 17.4 | 0.391 | 0.57 | 0.439 | 0.821 | 0.704 | 0.503 | 0.502 | 0.446 | 0.886 | 1.15
AGNPAYRSFSN [IL4R_Y497] | 0.366 | 0.447 | 0.45 | 0.424 | 0.39 | 0.618 | 0.389 | 0.414 | 0.318 | 0.575 | 0.52 | 0.347 | 0.402 | 0.431 | 0.751 | 0.466
AAALAYGLDKS [HSPA9_Y230] | 0.455 | 1.2 | 0.528 | 0.419 | 0.398 | 0.499 | 0.467 | 0.477 | 0.4 | 1.12 | 0.598 | 0.442 | 0.388 | 0.423 | 0.69 | 0.637
EKPAKYDDIKK [GAPDH_Y255] | 0.391 | 0.745 | 0.352 | 0.426 | 0.334 | 0.632 | 0.392 | 0.503 | 0.452 | 1.01 | 0.782 | 0.441 | 0.316 | 1.34 | 0.657 | 0.662
LQTYRYHGHSM [PDHA1_Y289] | 0.323 | 0.569 | 0.285 | 0.288 | 0.698 | 0.411 | 0.455 | 0.395 | 0.337 | 0.513 | 0.52 | 0.489 | 0.414 | 0.561 | 0.879 | 0.646
LAIERYVVVSK [RHO_Y136_C140S] | 0.843 | 0.744 | 0.396 | 0.443 | 0.515 | 0.935 | 0.459 | 0.701 | 3.45 | 1.04 | 0.86 | 0.499 | 0.596 | 1.51 | 0.627 | 1.33
FGVVGYLAIMF [RNF175_Y155] | 0.474 | 1.45 | 0.443 | 0.655 | 0.532 | 1.37 | 0.484 | 0.819 | 0.579 | 1.44 | 1.04 | 0.795 | 0.519 | 0.653 | 1.11 | 0.872
RLEPVYFVAPA [LAMC2_Y250_D247E] | 9.12 | 1.7 | 6.33 | 7.76 | 7.77 | 9.14 | 0.985 | 8.72 | 6.76 | 1.02 | 2.59 | 7.02 | 9.5 | 0.625 | 0.798 | 0.709
VEYAKYGSLQG [RET_Y809_R813Q] | 0.549 | 0.58 | 1.44 | 0.846 | 0.418 | 0.523 | 0.458 | 0.539 | 0.438 | 0.662 | 0.614 | 0.505 | 1.44 | 0.786 | 0.852 | 4.76
NPQKSYFIRLY [WAS_Y83] | 0.486 | 1.07 | 0.349 | 0.452 | 0.353 | 0.724 | 0.542 | 0.745 | 0.637 | 1.15 | 1.16 | 0.61 | 0.372 | 0.517 | 1.06 | 0.937
VHKEGYNKLNQ [ZNF676_Y98] | 0.356 | 0.668 | 0.463 | 0.381 | 0.426 | 0.752 | 0.367 | 0.511 | 0.331 | 0.539 | 0.55 | 0.467 | 0.38 | 0.416 | 0.89 | 0.624
NRSSLYLVAGP [KIAA1614_Y1083] | 0.556 | 0.698 | 0.434 | 0.619 | 1.09 | 0.642 | 0.495 | 0.607 | 0.517 | 0.91 | 0.915 | 0.591 | 0.534 | 0.543 | 0.756 | 0.92
MIHSAYALGGL [CPS1_Y590_R587H] | 0.388 | 0.502 | 0.489 | 0.464 | 0.409 | 0.373 | 0.626 | 0.471 | 0.428 | 0.592 | 0.53 | 0.36 | 0.566 | 0.716 | 0.883 | 0.64
EDSEFYRAFEE [CASQ2_Y179_K180R_YF] | 0.473 | 1.02 | 0.494 | 0.513 | 0.449 | 0.771 | 0.489 | 0.848 | 0.525 | 1.07 | 1.15 | 0.582 | 0.538 | 0.751 | 0.963 | 0.682
DAICYYRMENA [NPHS2_Y195] | 7.73 | 6.63 | 3.12 | 1.11 | 1.28 | 1.03 | 0.736 | 6.5 | 0.795 | 1.44 | 2.23 | 0.866 | 1.34 | 0.641 | 0.952 | 0.799
KLADVYQAELR [GFAP_Y116] | 0.472 | 0.549 | 0.634 | 0.47 | 0.429 | 0.549 | 0.445 | 0.667 | 0.459 | 0.792 | 0.789 | 0.533 | 0.492 | 0.486 | 0.844 | 0.561
